Assay results reported in patent US20070243558A1, “Peptide Stabilization” (priority 2004, published 2007).
Read-outs that look alike come from different tables or passages of the source.

Tests used:
[1] = Stability of U-INTP in samples after three days at room temperature, without and with stabilizer (Table 4); format: physicochemical; parameters: U-INTP test result, Immed.: unit not given beside the values; settings: for U-INTP test result, 3 days + stabilizer / U-INTP, 3 days + stabilizer, in % of immed.-sample: with stabilizer
From the text: Two parallel tests were done for each sample.

[2] = Storage stability of analytes in serum sample without stabilizer (background statement); format: physicochemical; settings: room temperature
From the text: In connection with said determinations and sample handling the poor stability of gastrin-17 has proven to be a problem, due to the fact that it decomposes rapidly in the sample. […] This is in contrast to pepsinogen I and II, which retain their activity at room temperature for many days, and Helicobacter pylori antibodies, which survive for at least three days under refrigerator conditions.

[3] = room temperature; for effect of adding DMSO on the activity: EDTA-plasma samples, day 0 and day 3
Protocol: The effect of adding DMSO was tested on pepsinogen I, pepsinogen II, Helicobacter pylori antibodies and gastrin-17. The results are indicated at day 0 and day 3.

[4] = Stability of the same analytes in serum samples, with and without 5% DMSO (Table 3); format: physicochemical
From the text: Table 3 is a test corresponding to the test of Table 2, but where the ten samples to be tested were serum samples rather than plasma samples.

[5] = Sample 1, three days at room temperature
[6] = Sample 1 parall., three days at room temperature
[7] = Sample 2, three days at room temperature
[8] = Sample 2 parall., three days at room temperature
[9] = EDTA-plasma sample PL466s, 0% DMSO, day 0
[10] = EDTA-plasma sample PL466s, 0% DMSO, day 3
[11] = EDTA-plasma sample PL466s, 5% DMSO, day 0
[12] = EDTA-plasma sample PL466s, 5% DMSO, day 3
[13] = EDTA-plasma sample PL467s, 0% DMSO, day 0
[14] = EDTA-plasma sample PL467s, 0% DMSO, day 3
[15] = EDTA-plasma sample PL467s, 5% DMSO, day 0
[16] = EDTA-plasma sample PL467s, 5% DMSO, day 3
[17] = EDTA-plasma sample PL471s, 0% DMSO, day 0
[18] = EDTA-plasma sample PL471s, 0% DMSO, day 3
[19] = EDTA-plasma sample PL471s, 5% DMSO, day 0
[20] = EDTA-plasma sample PL471s, 5% DMSO, day 3
[21] = EDTA-plasma sample PL472s, 0% DMSO, day 0
[22] = EDTA-plasma sample PL472s, 0% DMSO, day 3
[23] = EDTA-plasma sample PL472s, 5% DMSO, day 0
[24] = EDTA-plasma sample PL472s, 5% DMSO, day 3
[25] = EDTA-plasma sample PL473s, 0% DMSO, day 0
[26] = EDTA-plasma sample PL473s, 0% DMSO, day 3
[27] = EDTA-plasma sample PL473s, 5% DMSO, day 0
[28] = EDTA-plasma sample PL473s, 5% DMSO, day 3

Molecule: collagen I aminoterminal telopeptide [U-INTP]
- U-INTP test result, Immed. ([1]; Sample 1, immediately): 200
- U-INTP test result, 3 days no stabilizer [1, 5]: 189
- U-INTP, 3 days no stabilizer, in % of immed.-sample [1, 5]: 94.5%
- U-INTP test result, 3 days + stabilizer [1, 5]: 202
- U-INTP, 3 days + stabilizer, in % of immed.-sample [1, 5]: 101.0%
- U-INTP test result, Immed. ([1]; Sample 1 parall., immediately): 199
- U-INTP test result, 3 days no stabilizer [1, 6]: 187
- U-INTP, 3 days no stabilizer, in % of immed.-sample [1, 6]: 94.0%
- U-INTP test result, 3 days + stabilizer [1, 6]: 209
- U-INTP, 3 days + stabilizer, in % of immed.-sample [1, 6]: 105.0%
- U-INTP test result, Immed. ([1]; Sample 2, immediately): 113
- U-INTP test result, 3 days no stabilizer [1, 7]: 115
- U-INTP, 3 days no stabilizer, in % of immed.-sample [1, 7]: 101.8%
- U-INTP test result, 3 days + stabilizer [1, 7]: 144
- U-INTP, 3 days + stabilizer, in % of immed.-sample [1, 7]: 127.4%
- U-INTP test result, Immed. ([1]; Sample 2 parall., immediately): 118
- U-INTP test result, 3 days no stabilizer [1, 8]: 114
- U-INTP, 3 days no stabilizer, in % of immed.-sample [1, 8]: 96.6%
- U-INTP test result, 3 days + stabilizer [1, 8]: 136
- U-INTP, 3 days + stabilizer, in % of immed.-sample [1, 8]: 115.3%

Molecule: pepsinogen I [PGI]
- time for which activity is retained [2]: many days
- PGI concentration [3, 9]: 58.8 µg/L
- PGI concentration [3, 10]: 76.9 µg/L
- PGI concentration [3, 11]: 60.5 µg/L
- PGI concentration [3, 12]: 77.4 µg/L
- PGI concentration [3, 13]: 73.3 µg/L
- PGI concentration [3, 14]: 94.9 µg/L
- PGI concentration [3, 15]: 76.8 µg/L
- PGI concentration [3, 16]: 98.8 µg/L
- PGI concentration [3, 17]: 60.6 µg/L
- PGI concentration [3, 18]: 85.5 µg/L
- PGI concentration [3, 19]: 67.6 µg/L
- PGI concentration [3, 20]: 84.3 µg/L
- PGI concentration [3, 21]: 110.3 µg/L
- PGI concentration [3, 22]: 134.8 µg/L
- PGI concentration [3, 23]: 109.4 µg/L
- PGI concentration [3, 24]: 135.6 µg/L
- PGI concentration [3, 25]: 94.9 µg/L
- PGI concentration [3, 26]: 115.4 µg/L
- PGI concentration [3, 27]: 94.7 µg/L
- PGI concentration [3, 28]: 102.1 µg/L
- effect of adding DMSO on the activity [3]: essentially no effect
- PGI concentration ([4]; serum sample PL411s, 0% DMSO): 283.6 µg/L
- PGI concentration ([4]; serum sample PL411s, 5% DMSO): 296.0 µg/L
- PGI concentration ([4]; serum sample PL420b, 0% DMSO): 75.5 µg/L
- PGI concentration ([4]; serum sample PL420b, 5% DMSO): 79.3 µg/L
- PGI concentration ([4]; serum sample PL426s, 0% DMSO): 49.7 µg/L
- PGI concentration ([4]; serum sample PL426s, 5% DMSO): 50.6 µg/L
- PGI concentration ([4]; serum sample PL438s, 0% DMSO): 158.6 µg/L
- PGI concentration ([4]; serum sample PL438s, 5% DMSO): 156.0 µg/L
- PGI concentration ([4]; serum sample PL439s, 0% DMSO): 67.6 µg/L
- PGI concentration ([4]; serum sample PL439s, 5% DMSO): 68.5 µg/L
- PGI concentration ([4]; serum sample PL447b, 0% DMSO): 6.0 µg/L
- PGI concentration ([4]; serum sample PL447b, 5% DMSO): 6.0 µg/L
- PGI concentration ([4]; serum sample PL454s, 0% DMSO): 100.6 µg/L
- PGI concentration ([4]; serum sample PL454s, 5% DMSO): 102.3 µg/L
- PGI concentration ([4]; serum sample PL455b, 0% DMSO): 79.2 µg/L
- PGI concentration ([4]; serum sample PL455b, 5% DMSO): 81.5 µg/L
- PGI concentration ([4]; serum sample PL457b, 0% DMSO): 101.1 µg/L
- PGI concentration ([4]; serum sample PL457b, 5% DMSO): 106.9 µg/L
- PGI concentration ([4]; serum sample PL458s, 0% DMSO): 77.1 µg/L
- PGI concentration ([4]; serum sample PL458s, 5% DMSO): 80.1 µg/L

B1: pepsinogen II (protein, UniProt P20142 17-388, looked up)
pro-form: AVVKVPLKKFKSIRETMKEKGLLGEFLRTHKYDPAWKYRFGDLSVTYEPMAYMDAAYFGEISIGTPPQNFLVLFDTGSSNLWVPSVYCQSQACTSHSRFNPSESSTYSTNGQTFSLQYGSGSLTGFFGYDTLTVQSIQVPNQEFGLSENEPGTNFVYAQFDGIMGLAYPALSVDEATTAMQGMVQEGALTSPVFSVYLSNQQGSSGGAVVFGGVDSSLYTGQIYWAPVTQELYWQIGIEEFLIGGQASGWCSEGCQAIVDTGTSLLTVPQQYMSALLQATGAQEDEYGQFLVNCNSIQNLPSLTFIINGVEFPLPPSSYILSNNGYCTVGVEPTYLSSQNGQPLWILGDVFLRSYYSVYDLGNNRVGFATAA
modifications: pro-form
notes: analyte determined from serum or plasma sample
- time for which activity is retained [2]: many days
- PGII concentration [3, 9]: 6.8 µg/L
- PGII concentration [3, 10]: 8.3 µg/L
- PGII concentration [3, 11]: 6.6 µg/L
- PGII concentration [3, 12]: 7.7 µg/L
- PGII concentration [3, 13]: 5 µg/L
- PGII concentration [3, 14]: 6.4 µg/L
- PGII concentration [3, 15]: 4.9 µg/L
- PGII concentration [3, 16]: 6.2 µg/L
- PGII concentration [3, 17]: 4.9 µg/L
- PGII concentration [3, 18]: 5.8 µg/L
- PGII concentration [3, 19]: 4.8 µg/L
- PGII concentration [3, 20]: 5.3 µg/L
- PGII concentration [3, 21]: 5.7 µg/L
- PGII concentration [3, 22]: 7.3 µg/L
- PGII concentration [3, 23]: 5.7 µg/L
- PGII concentration [3, 24]: 6.9 µg/L
- PGII concentration [3, 25]: 6.4 µg/L
- PGII concentration [3, 26]: 8.5 µg/L
- PGII concentration [3, 27]: 6.4 µg/L
- PGII concentration [3, 28]: 7.9 µg/L
- effect of adding DMSO on the activity [3]: essentially no effect
- PGII concentration ([4]; serum sample PL411s, 0% DMSO): 32.8 µg/L
- PGII concentration ([4]; serum sample PL411s, 5% DMSO): 33.6 µg/L
- PGII concentration ([4]; serum sample PL420b, 0% DMSO): 6.3 µg/L
- PGII concentration ([4]; serum sample PL420b, 5% DMSO): 5.7 µg/L
- PGII concentration ([4]; serum sample PL426s, 0% DMSO): 3.5 µg/L
- PGII concentration ([4]; serum sample PL426s, 5% DMSO): 3.1 µg/L
- PGII concentration ([4]; serum sample PL438s, 0% DMSO): 13.6 µg/L
- PGII concentration ([4]; serum sample PL438s, 5% DMSO): 12.8 µg/L
- PGII concentration ([4]; serum sample PL439s, 0% DMSO): 5.7 µg/L
- PGII concentration ([4]; serum sample PL439s, 5% DMSO): 5.2 µg/L
- PGII concentration ([4]; serum sample PL447b, 0% DMSO): 4.9 µg/L
- PGII concentration ([4]; serum sample PL447b, 5% DMSO): 4.6 µg/L
- PGII concentration ([4]; serum sample PL454s, 0% DMSO): 7.7 µg/L
- PGII concentration ([4]; serum sample PL454s, 5% DMSO): 7.3 µg/L
- PGII concentration ([4]; serum sample PL455b, 0% DMSO): 7.3 µg/L
- PGII concentration ([4]; serum sample PL455b, 5% DMSO): 7.1 µg/L
- PGII concentration ([4]; serum sample PL457b, 0% DMSO): 7.1 µg/L
- PGII concentration ([4]; serum sample PL457b, 5% DMSO): 6 µg/L
- PGII concentration ([4]; serum sample PL458s, 0% DMSO): 6.7 µg/L
- PGII concentration ([4]; serum sample PL458s, 5% DMSO): 5.8 µg/L
